Data as given in paper PMC6486636 (2019).

B1: PABPC1 MLLE (544-626) (protein)
chain: PLTASMLASAPPQEQKQMLGERLFPLIQAMHPTLAGKITGMLLEIDNSELLHMLESPESLRSKVDEAVAVLQAHQAKEAAQKA
B2: LARP4A (1-287), N-terminal domain (protein)
chain: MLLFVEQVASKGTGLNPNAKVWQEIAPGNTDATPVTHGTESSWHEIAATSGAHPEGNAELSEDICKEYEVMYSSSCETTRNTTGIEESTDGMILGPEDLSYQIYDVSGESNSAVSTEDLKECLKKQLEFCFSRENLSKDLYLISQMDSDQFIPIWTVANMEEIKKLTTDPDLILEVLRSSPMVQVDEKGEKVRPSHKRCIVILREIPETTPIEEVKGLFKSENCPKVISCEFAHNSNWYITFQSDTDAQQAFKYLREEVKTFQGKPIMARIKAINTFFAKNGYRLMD

Key:
[1] = target: LARP4A (1-287), N-terminal domain (Homo sapiens (Human), UniProt Q71RC2); experiment: competition EMSA (MLLE displacing 32P-oligoA15 from NTD); mutually exclusive with oligoA15 RNA; measured by competition with preformed NTD-oligoA15 complex
[2] = target: T1, His-SUMO-MLLE (PABPC1 MLLE domain 544-626 fused with a His-tagged SUMO tag) (Homo sapiens (Human), UniProt P11940); experiment: Ni-NTA pull-down, SDS-PAGE
T1 chain: B1 chain

Chain of LARP4A (1-287), N-terminal domain (Homo sapiens (Human), UniProt Q71RC2) (Q71RC2 1-287): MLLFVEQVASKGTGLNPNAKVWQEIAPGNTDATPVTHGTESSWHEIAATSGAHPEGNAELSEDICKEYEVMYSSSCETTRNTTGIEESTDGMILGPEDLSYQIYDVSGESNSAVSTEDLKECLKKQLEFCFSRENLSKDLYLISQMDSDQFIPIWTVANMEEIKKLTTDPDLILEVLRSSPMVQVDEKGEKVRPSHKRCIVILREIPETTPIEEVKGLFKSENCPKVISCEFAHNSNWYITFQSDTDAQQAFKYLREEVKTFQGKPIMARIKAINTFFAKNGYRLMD

Binder | binding result [1] | binding result [2]
B1 | binds | 
B2 |  | binds
